{
  "source": "the DeepSol protein solubility set",
  "data": [
    {"assay": "soluble on expression in E. coli; label from the status in PepcDB or PDB records", "values": [
      {"sequence": "MGSDKIHHHHHHMKLISVRRIWEQAAHNAFTDLIAFQEALFCVFREGTAHVSPDGALRILRSVDGGETWQSVALIRSDEADLRDGKLIEYQGELLLLGGGTLHNKSGLQSHLWRSADGRVWSDALKIADKGYWLWRLTEHQNTLYGVGYRPGPDGDTRLYKSEDGVQFKTWLKVFNNQGYVNETAIVFDQDSGFCLLRRDPVWGPEFFGLLGHSRAPFTDWQWQELDKRIGGPVMLMYQSRLLAVVRLYDEQVRTALVEIHSDTGVVQELLTLPSKGDTSYAGVVIDGNELWVSYYSSHELADSQLDTQNSLDESSRAGKAKTMIYFAKILLS", "soluble on expression in E. coli": "not soluble"},
      {"sequence": "KSGKEAGSQIMKFEVQDASPTIATELNLVTGEQVYYIKRLRFIEDNAAQLEETWMSVARFPDLTVSHMQKSKFSYIENECGIKIIGTFETFSPTFPTPEIASILRISPRDPILKIQTQAVDSNSIPLDYSLLYSNIFEFQVKYFFPR", "soluble on expression in E. coli": "not soluble"},
      {"sequence": "MQPELTKTPANFPLSPLGAVVILGDIPNPELLAIPLAPTPSTMFGPRGACLVAETGALWVSDTGHHRLLGWRKLPTTDSQPADWVIGQPDFYHEGQNAKGTPGRTTVSVPTGICVCGGGLAIADAWNHRVLIWHKIPEDSNVPADLVLGQRNFSENEPNRGKQSPDANTMHWPYGVAYHQGKLFVADTGNRRLLIWQQLPTENGQPADIVLGQPDMISRNENGGGSPTAGSMRWCHDIAFWDDNLVVTDAGNNRVMIWQGIPTENNAPCAVVLGQKSFDLVEMNQGVYFPSAGSLSMPYGVGATEDWLMVADTANSRLLGWRKRESILLLQGAIADGIIGQNSFQSKSENRHFGLPTRDSLNWCYGVKVCGSTAVISDSGNNRVLLWRFLLEHHHHHH", "soluble on expression in E. coli": "not soluble"},
      {"sequence": "SLNRLFKRYSQQVQLILEATRAIGDGNLKERIDTNQVQEELNDIASAINFMVDSLDQYIHDIYTLEIKQRDAHMRALQSQINPHFLYNTLEYIRMYALSRQQEELADVVYAFSTLLRNNINQEKTTTLAEEISFCEKYVYLYQMRYPDQFAYKFEIEETIADVEIPKFIIQPLVENYFVHGIDYQRQDNAIKVHAYREGEKIIVAVVDNGKGITANRLEEIRERLNQTEIDTEQSIGLRNVHERLQRFFGESYGLTIEGKEGEGTTIRLSFVA", "soluble on expression in E. coli": "soluble"},
      {"sequence": "MSSAQVNGISKRLIVESPNVKLEDGVLESRFTYRKNHFEHRADGLHVTPKEHDYSFKTVLKPRKTGLLLVGLGGNNGSTAVGSIFANQYAMTWRTKEGHSQANYFGSVTQTATVHLGYDSATQNQIFVPFKDIVPILSPNDLIISGWDISDSNLYEAMGRAKVFEPELQEKLRPFMEPIVPLPSIYYPDFIASNQGDRANNVIPGDNKLEHLEHIRADIRKFKQEHELECVIVLWTANTERYTDVRQGLNATADEIMESIRVNEDEVSPSNIFAVASILEGAHYINGSPQNTLVPGLIELAERHKVFVGGDDFKSGQTKFKSAFVDFLVSSGMKPESIVSYNHLGNNDGKNLSEARQFRSKEISKSSVVDDMVKSNQILFPDAKNPDHCVVIKYVPYVADSKRAMDEYICSIFMGGKQTFVVHNTCEDSLLASPLIYDLAILTELASRVSYKVDDEYKPFHSVLSILSLLLKAPVVPPGTPISNAFMRQFSTLTKLVTALAGFPSDTDMQIEFFTQLPAAKSKSQ", "soluble on expression in E. coli": "not soluble"},
      {"sequence": "MSMPATSTKTTKLATSLIDEYALLGWRAMLTEVNLSPKPGLVDRINCGAHKDMALEDFHRSALAIQGWLPRFIEFGACSAEMAPEAVLHGLRPIGMACEGDMFRATAGVNTHKGSIFSLGLLCAAIGRLLQLNQPVTPTTVCSTAASFCRGLTDRELRTNNSQLTAGQRLYQQLGLTGARGEAEAGYPLVINHALPHYLTLLDQGLDPELALLDTLLLLMAINGDTNVASRGGEGGLRWLQREAQTLLQKGGIRTPADLDYLRQFDRECIERNLSPGGSADLLILTWFLAQI", "soluble on expression in E. coli": "not soluble"},
      {"sequence": "MSNYTWKQADIQTLISFYETLGEEINPKVQKVQQNSEANSFSEKAKKFGLLDLPIYSKCVDSSQLIAESASRVYHDAKEYMNNGSATEAELYRFVSSILKEVLEPIFNPKEIRNVLKGLITSLVDSRSRDEEIGSDIEKNVKYEVVRFLPESPPNFPGFNDNVSRSITNFIGYFALHTIRHHCYVNFGVDGELKFYQRNMYKKAFDDLRVNKAKPTVSVKPEASLKREPKAETPTLTRVKPEIRNDSDEDFCEIIEPAVKKSKTRQTSESNAKGGKELKDFPEKYMLEDLDKDDLPMNFKTKFRKLVEQNQMLRDEINDYKELIQLKIAEKKQRMG", "soluble on expression in E. coli": "not soluble"},
      {"sequence": "MGSDKIHHHHHHMKEINLASVLVAKRREKGITQDELAAYIGVSKASVSKWETGQSYPDITFLPLLAAYFNISIDELMSYSPQMERSDIAKLYTRLAADFASRPFEDVIAECAALIKKYYSCFPLLVQLVKLYTNHFMLAGTQERQEALLNETVTLCERIQAESGDVQLAKEAVSYQALCSLALQRPQQVLDLLGEGIRPMLPEGMLIAQAYQVMGNIGKAKETLQTELYQYVMVAFQGLLNVLQMATDHFEKAEEAFLRASDLAQIFNMKQLNPNNVILLYALGARMYCANNSHAKAIELLGNYVDTCVGGFFPFELHGDAFFDLIDPWLKDCGAAAPRSEQVIKESMLRDVLMNPAFASLQDDPGYRRLVQKMERFIGR", "soluble on expression in E. coli": "not soluble"},
      {"sequence": "GPGSMSERDKQRRSLERERMATVIFSYISHLMRTHEEETTVADEFIPSTKFFRTETLPNISLIHYVRRVVEHMNCSPEAYIFALAYIRRLFVAGFPLHTHSIYRLLLTAVVVATRVRDDFLFSKKYYSKVGGVTACDLNMMEIHFLADLLEYRVEVSPDEYRVLCNEITALLSSEVSKFDGNSSNPNNDTAAEGVASIQEPVGNSKPRWMSECCLYW", "soluble on expression in E. coli": "not soluble"},
      {"sequence": "KPGAMYRNSSKPAYTRREYISGIPGKKIAQFDMGNNGAGPTYPAQVELVVEKPVQIRHNALEAARVAANRYVQNSGAAANYKFRIRKFPFHVIRENKAAAAAAAAAAADGMRAPFGKPVGTAARVHGANHIFIAWVNPDPNVEEAWRRAKMKVTPTINIDSSPAGNA", "soluble on expression in E. coli": "soluble"},
      {"sequence": "MAENVGSDSSEFESISSSQKSYLKNCPFAGHEALPTKSTDSDNTEVLGNQISPAVVKTPILSFSSPTSLDSINDDVFRTPPENASLSSAAESEPRVGVSEIKLQGGSNLTTPFSMAETTLVSSSPSLPAENVRVSESNLKSSSSTAKTTPVSASPSVNARVSESNLNSSSSTTPVSVSPSEKVRVFETTPVSASPSEKVRVFETKCHSDSGDSVPLSSSPPSVAADDVRVPAKHLDSDSSPPTAIGRTMVLVKQRISASDNSASSSASEGTKVSKTENSGEVLPFKEIIEALLRNSGEKLNERDDKVSYVEILKQCGLKFPK", "soluble on expression in E. coli": "soluble"},
      {"sequence": "MGSDKIHHHHHHMTYTPFFIHGEDRRSRWLITCDHATNTVPPEICGGDLGLAREDMERHIAYDVGAYEVSRLLGEMLAAPVIAANFSRLVIDPNRGEDDPTLLMKLYDGSIIPGNRHADAAERERRLNMCYRPYHDALARLAARPGVVLVSMHSFTRQLRGRAPRPWQIGVLHTADQRFSDPLIARLRGEADLCVGVNQPYTGVLPGDAIDTHCTAFGRPNALIELRNDLIGDPAGQHAWAERLAPLLQDALADSGL", "soluble on expression in E. coli": "not soluble"},
      {"sequence": "MEASEEVTMVNKGDDGKSGIRYYTTIEELSRAINAGLSLQDRRMSEEEAMEAAEHIINFFGYNDRVIDNMLEPEDRDSFYTMEDIGILQTEREETTLFDGREWRIHYWILNINKIMELANMQVDYKKKITNDEYKIYDEIPDDYWKVVE", "soluble on expression in E. coli": "not soluble"},
      {"sequence": "ELYGASPDIDLGTGPTPTLGPVTPEICKQDIVFDGIAQIRGEIFFFKDRFIWRTVTPRDKPMGPLLVATFWPELPEKIDAVYEAPQEEKAVFFAGNEYWIYSASTLERGYPKPLTSLGLPPDVQRVDAAFNWSKNKKTYIFAGDKFWRYNEVKKKMDPGFPKLIADAWNAIPDNLDAVVDLQGGGHSYFFKGAYYLKLENQSLKSVKFGSIKSDWLGC", "soluble on expression in E. coli": "soluble"},
      {"sequence": "MSSKMVKSSEIVGKLNLRAHQEGGFFAETFRDSSVFLSTSQLPPTFKVDRAVSTSIYFLLPSGSVSRLHRIPMAETWHFYLGEPLTVVELYDDGKLKFTCLGPDLFEGDQKPQYTVPPNVWFGSFPTKDVHFSQDGALLKAEARDSENHFSLVGCTCAPAFQFEDFELAKRSDLLSRFPQHESLITMLSYPE", "soluble on expression in E. coli": "soluble"},
      {"sequence": "MGSDKIHHHHHHMQVRRFGRTNWNVSEIGYGMWGASGWKGSDDSQSEQSLDLAVSKGVNFFDTAWGYGEGHSEQLLGKLVKRHQSKKIYVATKIPPMNFKWPSKKSYTIGECFPVSHIKEYTETSLKNLGVEKIDLMQFHVWEDAWATDESWQRAVEDLQKEGKVDAFGISVNRWEPENCLETLKTGLIDSVQVIYNIFDQAPEDALLPLCKKLDIAVIARVPFDEGTLTGTITKDTTFEEGDWRASYFVPENLISSAEHADRLRPILPSGMTMAEMALRFILMNDDIATTIPGMRKERNVLANTGVSDGKKLSLDLYNELKKHRWDREPTSWSQ", "soluble on expression in E. coli": "not soluble"},
      {"sequence": "MEAKLQVGVLGFGTVGSGVIHILEEHQEKISQVTGYHISVKKVLVRDLEKNRRYETKGFELTTNPSDVLDDPEIAVVVEVMGSITTAREYILQALKAGKHVVTANKDLIALHGDELVAVAQANNCDLFYEASVAGGIPILRTIVNSLAADKIQKVMGIVNGTTNFMLTKMTTEKKSYEEVLAEAQALGFAESDPTNDVDGIDAARKMVIMTRLAFGMNVNLDNVETSGIRGISPEDIEVAYQLGYKIKLVGTAEETNGTVNVNVGPVLLPKAHPLAGVNYENNAVFVTGAAVGETMFYGPGAGELPTATSVVSDLITVAKNSRLGTNGNAFNSYKHETKHTPKEQVFSKYYLRLTMDDKTGTFLKLTQIFAEAGVGFDKILQQPYDDFTATVVIVTHSTSQAQLEQAITRVKNEPEMQMLAKYSVVEG", "soluble on expression in E. coli": "soluble"},
      {"sequence": "MTPPIISPESFEALRRMRAAEPTMVAERFKQRRKRELLGEDGKLFIVAADHPARGALAVGDNETAMANRYELLERMAIALSRPGVDGVLGTPDIIDDLAALGLLDDKIVVGSMNRGGLRGASFEMDDRYTGYNVSSMVDRGVDFAKTLVRINLSDAGTAPTLEATAHAVNEAAAAQLPIMLEPFMSNWVNGKVVNDLSTDAVIQSVAIAAGLGNDSSYTWMKLPVVEEMERVMESTTMPTLLLGGEGGNDPDATFASWEHALTLPGVRGLTVGRTLLYPQDGDVAAAVDTAARLVHTDIQQFTSQSILEHHHHHH", "soluble on expression in E. coli": "soluble"},
      {"sequence": "SLVKGESGHQAVSGIAIQRDLAIIEVDKEHLSSATKQCQMLGIDIWNVIEETERTGIMIKQEACAKFDLVFSDKIRNSEAVSLLTAVGLEANGMVEHACGLLAQQDIAINFCATNALTMMLVLPPESVDTAANILHDAYITSSEALNIQQKHAFLG", "soluble on expression in E. coli": "not soluble"},
      {"sequence": "MRILEKNHGKSRVRFNCTHPIKPAAWVLAANVSLLGCAYAATDENNSQKKERENNPANTTITVTASPLRHAGVTEDSGSYNTSSMSTATGLNISARETPQSVSVLTKQRMRDQNLNSVESAVNNITGISVRQFDSDRFGFTSRGMAVNNVMRDGVATFYDTRFNYGDNTLDTDMFDRIEVVRGAAGLMAGPGNPSAVINLVRKRPTQDFRGSVSAGVGSWEKWRTALDISGPLNSEGSVRGRFVTAYEDKNSFVNRYDQSKNPFYGILEIDVTPNTLFTFGADTQRTLTRGGMFGGLPLFNSAGGRTNYAQSATTASDWASAETRTQTLFSSLQHNFDNGWNIKGTFTFDNDKLRQDVMWPTGYPDPQTNIGMRPGSLSLIDGARRQQNYDIQVNGQYSLFGRQHQLGLGWNRQRQNIDNDYYLATCNATRTCPDLGDFTQPGWQYPKPVWSDKRAYGSKGRSDQSSQYVVTQLSLIDPLTLILGGRLTTWETRGDNFGTPQNARYKNEFVPYSGLTYDINRDLSVYTSYTEIFNPENRRDRNNTLLAPVSGQNYEAGLKGVAFDNSLDYSLAVFEIRQNNMPVPDTTAPRLPDNSQPYFAVDGTKTRGFEAEVSGKMTEDWNISAGYTQYNVKLPSSNTQTPVTPVTPRKVLKLFTTYTLPGQLSDLTLGGGVNWQSQIARNLSSPIGIQQIGQGSFAIYSLMSRYQFTPQLSLTVNLDNLFNQHYYTQIGQYNQYLLGAPRNVDATVRYTF", "soluble on expression in E. coli": "not soluble"}
    ]}
  ]
}
